Substitutions are numbered along the chain they refer to. Values belong to the binder of their own block, whether it stands above or below them.
Legend:
human sclerostin (SOST) [1] = target: T1, human sclerostin (SOST) (human, UniProt Q9BQB4 24-213); assay: binding ELISA, antigen-receptor binding blocking experiments, Biacore; no numbers given
T1 construct: also called human SOST; h-SOST
T1 sequence (looked up): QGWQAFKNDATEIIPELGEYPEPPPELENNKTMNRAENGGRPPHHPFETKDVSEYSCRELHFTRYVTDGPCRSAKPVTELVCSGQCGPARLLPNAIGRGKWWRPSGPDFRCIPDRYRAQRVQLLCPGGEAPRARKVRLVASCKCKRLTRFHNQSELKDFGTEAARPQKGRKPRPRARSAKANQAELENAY

human sclerostin (SOST) [2] = target: T1, human sclerostin (SOST); assay: ELISA binding to human sclerostin (assay not given; taken from the text of Example 1)
human sclerostin (SOST) [3] = target: T1, human sclerostin (SOST); assay: blocking of the binding of human SOST to human LRP-6

B1: humanized anti-SOST antibody Ab-5 (antibody, human IgG4 S228P, kappa, V domains shown)
VH: EVQLVQSGAEVKKPGASVKVSCKASGYTFTDYNLDWLRQAPGEGLEWIGDIDPNDGDILYNQKFRDRVTMTTDTSTSTAYMELRSLRSDDTAVYYCARRWAYYFDYWGQGTTVTVSS
VL: DIVMTQSPSSLSASVGDRVTITCKASQSVSNDVAWYQQKPGKSPKLLIYYTSNRFTGVPDRFSGSGSGTDFTLTISSLQPEDFATYFCQQDYSSPVTFGGGTKVEIKR
notes: Human IgG4 heavy chain and kappa light chain
binding result (human sclerostin (SOST) [1]): binds

B3: humanized anti-SOST antibody Ab-9 (antibody, human IgG4 S228P, kappa, V domains shown)
VH: B1 VH with D55N
VL: B1 VL with D1N
notes: as for B1
binding result (human sclerostin (SOST) [1]): binds

Results, then the binder that gave them:

binding result (human sclerostin (SOST) [1]): binds
B2: humanized anti-SOST antibody Ab-10 (antibody, human IgG1, kappa, V domains shown)
VH: B1 VH with L37V, E43Q, I48M, D55N
VL: B1 VL with V3Q, S43A, D60S, F87Y
notes: kappa light chain

EC50 (human sclerostin (SOST) [2]): 0.701 nM | IC50 (human sclerostin (SOST) [3]): 9.91 nM
B4: murine anti-human SOST monoclonal antibody Ab-1 (antibody, V domains shown)
VH: EVQLQQSGPELVKPGTSVKIPCQTSGYTFTDYNLDWLKQRPGESLEWIGDIDPNNGDILYNQKFRDKATLTVDTSSNTAYLELRSLTSEDTAVYYCARRWAYYFDYWGQGTTLTISS
VL: NIVMTQTPKLLFVSAGDRITITCKASQSVSNDVAWYQQKPGQSPKLLIYYTSNRFTGVPDRFTGSGYGTDFTLTINTVQAEDLAVYFCQQDYSSPVTFGAGTKLELK
notes: Murine hybridoma antibody; also called monoclonal hybridoma cell strain Ab-1; murine antibody Ab-1
